Data on 3 molecules can be found in US20140011746A1 (WISCONSIN ALUMNI RESEARCH FOUNDATION, published 2014).

In one test the target is T1, α3β1 integrin (human, UniProt P26006 33-1051; P05556 21-798).
T1 construct: whole, on cells; Endogenous receptor in cell lysates
Description: immunoprecipitation of native mSdc4 or mSdc4ΔC2 (FIG. 6D).

The target in the next test is T2, HER2 (human, UniProt P04626 23-1255).
T2 construct: whole, on cells; Endogenous protein in cell lysates; also called ErbB2; HER2/Neu
Description: co-immunoprecipitation from mammary cell lysates.

In a further test the target is T3, EGFR (human, UniProt P00533 25-1210).
T3 construct: whole, on cells; Endogenous protein in cell lysates
Description: co-immunoprecipitation from cell lysates.

T1 sequence (P26006 33-1051, chain 1 of 2): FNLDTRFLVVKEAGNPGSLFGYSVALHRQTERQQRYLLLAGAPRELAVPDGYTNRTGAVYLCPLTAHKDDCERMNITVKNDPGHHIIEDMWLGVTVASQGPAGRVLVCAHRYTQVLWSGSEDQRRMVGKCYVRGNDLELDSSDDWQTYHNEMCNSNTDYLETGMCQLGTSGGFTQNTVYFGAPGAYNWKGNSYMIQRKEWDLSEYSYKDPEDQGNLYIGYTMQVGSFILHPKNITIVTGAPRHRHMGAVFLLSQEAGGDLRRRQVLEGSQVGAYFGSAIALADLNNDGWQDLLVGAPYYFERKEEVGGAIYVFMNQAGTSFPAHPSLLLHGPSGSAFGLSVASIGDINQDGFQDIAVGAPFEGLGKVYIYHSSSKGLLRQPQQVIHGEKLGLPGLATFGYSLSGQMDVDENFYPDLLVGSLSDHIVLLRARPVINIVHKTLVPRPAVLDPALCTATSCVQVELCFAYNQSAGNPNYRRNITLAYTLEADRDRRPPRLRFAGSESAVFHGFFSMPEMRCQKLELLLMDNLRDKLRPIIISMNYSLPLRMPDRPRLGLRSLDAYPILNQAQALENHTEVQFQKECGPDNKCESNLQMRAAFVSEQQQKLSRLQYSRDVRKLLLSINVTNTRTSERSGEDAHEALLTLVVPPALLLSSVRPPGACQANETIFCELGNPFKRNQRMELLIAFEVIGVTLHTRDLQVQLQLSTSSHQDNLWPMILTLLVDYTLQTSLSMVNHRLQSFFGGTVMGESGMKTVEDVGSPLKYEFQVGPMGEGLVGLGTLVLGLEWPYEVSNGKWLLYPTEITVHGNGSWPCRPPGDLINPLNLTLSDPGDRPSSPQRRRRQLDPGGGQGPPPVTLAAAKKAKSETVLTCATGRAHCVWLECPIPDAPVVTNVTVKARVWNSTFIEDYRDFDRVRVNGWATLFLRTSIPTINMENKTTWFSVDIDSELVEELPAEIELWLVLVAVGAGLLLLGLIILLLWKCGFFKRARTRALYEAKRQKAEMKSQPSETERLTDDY
T1 sequence (P05556 21-798, chain 2 of 2): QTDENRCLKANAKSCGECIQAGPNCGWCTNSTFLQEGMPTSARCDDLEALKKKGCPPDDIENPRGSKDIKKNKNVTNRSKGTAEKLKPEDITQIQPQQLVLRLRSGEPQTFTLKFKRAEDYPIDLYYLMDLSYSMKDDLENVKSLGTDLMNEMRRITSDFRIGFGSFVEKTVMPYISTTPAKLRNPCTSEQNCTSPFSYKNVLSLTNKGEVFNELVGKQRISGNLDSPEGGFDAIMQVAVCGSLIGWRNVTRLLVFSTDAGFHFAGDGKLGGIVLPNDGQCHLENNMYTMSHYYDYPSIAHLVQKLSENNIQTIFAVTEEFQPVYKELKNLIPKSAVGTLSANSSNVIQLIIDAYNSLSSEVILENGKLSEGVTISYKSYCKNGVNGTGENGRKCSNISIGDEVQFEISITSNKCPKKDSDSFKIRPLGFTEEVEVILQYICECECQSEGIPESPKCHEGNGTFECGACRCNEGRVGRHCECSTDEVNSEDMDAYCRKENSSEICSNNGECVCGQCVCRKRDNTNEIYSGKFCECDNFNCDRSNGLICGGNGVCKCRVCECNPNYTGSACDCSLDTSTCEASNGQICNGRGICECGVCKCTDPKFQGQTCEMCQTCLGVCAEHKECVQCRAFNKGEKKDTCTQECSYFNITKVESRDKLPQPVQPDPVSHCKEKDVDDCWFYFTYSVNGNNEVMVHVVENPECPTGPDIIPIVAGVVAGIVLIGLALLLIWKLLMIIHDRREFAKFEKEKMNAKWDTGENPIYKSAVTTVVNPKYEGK

B1: mSdc4ΔC2 mutant (receptor, mouse, UniProt O35988 24-194, looked up)
chain: ESIRETEVIDPQDLLEGRYFSGALPDDEDAGGSDDFELSGSGDLDDTEEPRPFPEVIEPLVPLDNHIPENAQPGIRVPSEPKELEENEVIPKRAPSDVGDDMSNKVSMSSTAQGSNIFERTEVLAALIVGGVVGILFAVFLILLLVYRMKKKDEGSYDLGKKPIYKKAPTN
notes: whole, on cells; Lacks the last four residues, EFYA; also called mSdc4 C2
As to B1, the binding result with α3β1 integrin was “binds”.

B2: human syndecan-4 (receptor, UniProt P31431 19-198, looked up)
chain: ESIRETEVIDPQDLLEGRYFSGALPDDEDVVGPGQESDDFELSGSGDLDDLEDSMIGPEVVHPLVPLDNHIPERAGSGSQVPTEPKKLEENEVIPKRISPVEESEDVSNKVSMSSTVQGSNIFERTEVLAALIVGGIVGILFAVFLILLLMYRMKKKDEGSYDLGKKPIYKKAPTNEFYA
notes: whole, on cells; Endogenous protein, immunoprecipitated as a control; also called Sdc4; human Sdc4
For B2, the binding result in the test with HER2 is on record as “no binding”.

B3: human syndecan-1 (receptor)
chain: QIVATNLPPEDQDGSGDDSDNFSGSGAGALQDITLSQQTPSTWKDTQLLTAIPTSPEPTGLEATAASTSTLPAGEGPKEGEAVVLPEVEPGLTAREQEATPRPRETTQLPTTHQASTTTATTAQEPATSHPHRDMQPGHHETSTPAGPSQADLHTPHTEDGGPSATERAAEDGASSQLPAAEGSGEQDFTFETSGENTAVVAVEPDRRNQSPVDQGATGASQGLLDRKEVLGGVIAGGLVGLIFAVCLVGFMLYRMKKKDEGSYSLEEPKQANGGAYQKPTKQEEFYA
notes: Endogenous Sdc1 of human cells, immunoprecipitated from cell lysates; also called hSdc1; Sdc1
For B3, the binding result with EGFR was “no binding”.
